± gives the uncertainty stated by the source.
Assay: abundance fitness (aPCA) (normalised: wild type 0, dead -1); higher = more abundant; growth selection in yeast, the domain comes from the species named
Conditions: Homo sapiens

Substance	abundance fitness
Lipoamide acyltransferase component of branched-chain alpha-keto acid dehydrogenase complex, mitochondrial K211F, P11182	-0.232 ± 0.065
Lipoamide acyltransferase component of branched-chain alpha-keto acid dehydrogenase complex, mitochondrial K211G, P11182	0.007 ± 0.037
Lipoamide acyltransferase component of branched-chain alpha-keto acid dehydrogenase complex, mitochondrial K211H, P11182	-0.041 ± 0.052
Lipoamide acyltransferase component of branched-chain alpha-keto acid dehydrogenase complex, mitochondrial K211I, P11182	-0.122 ± 0.061
Lipoamide acyltransferase component of branched-chain alpha-keto acid dehydrogenase complex, mitochondrial K211L, P11182	-0.115 ± 0.043
Lipoamide acyltransferase component of branched-chain alpha-keto acid dehydrogenase complex, mitochondrial K211M, P11182	-0.073 ± 0.051
Lipoamide acyltransferase component of branched-chain alpha-keto acid dehydrogenase complex, mitochondrial K211N, P11182	-0.058 ± 0.092
Lipoamide acyltransferase component of branched-chain alpha-keto acid dehydrogenase complex, mitochondrial K211P, P11182	-0.093 ± 0.048
Lipoamide acyltransferase component of branched-chain alpha-keto acid dehydrogenase complex, mitochondrial K211Q, P11182	-0.024 ± 0.044
Lipoamide acyltransferase component of branched-chain alpha-keto acid dehydrogenase complex, mitochondrial K211R, P11182	0.043 ± 0.037
Lipoamide acyltransferase component of branched-chain alpha-keto acid dehydrogenase complex, mitochondrial K211S, P11182	-0.044 ± 0.04
Lipoamide acyltransferase component of branched-chain alpha-keto acid dehydrogenase complex, mitochondrial K211T, P11182	-0.041 ± 0.056
Lipoamide acyltransferase component of branched-chain alpha-keto acid dehydrogenase complex, mitochondrial K211V, P11182	-0.049 ± 0.045
Lipoamide acyltransferase component of branched-chain alpha-keto acid dehydrogenase complex, mitochondrial K211W, P11182	-0.206 ± 0.047
Lipoamide acyltransferase component of branched-chain alpha-keto acid dehydrogenase complex, mitochondrial K211Y, P11182	-0.157 ± 0.1
Lipoamide acyltransferase component of branched-chain alpha-keto acid dehydrogenase complex, mitochondrial L172A, P11182	-0.327 ± 0.053
Lipoamide acyltransferase component of branched-chain alpha-keto acid dehydrogenase complex, mitochondrial L172C, P11182	-0.243 ± 0.079
Lipoamide acyltransferase component of branched-chain alpha-keto acid dehydrogenase complex, mitochondrial L172D, P11182	-0.237 ± 0.076

Substance	abundance fitness
Lipoamide acyltransferase component of branched-chain alpha-keto acid dehydrogenase complex, mitochondrial L172E, P11182	-0.107 ± 0.061
Lipoamide acyltransferase component of branched-chain alpha-keto acid dehydrogenase complex, mitochondrial L172F, P11182	-0.195 ± 0.085
Lipoamide acyltransferase component of branched-chain alpha-keto acid dehydrogenase complex, mitochondrial L172G, P11182	-0.681 ± 0.051
Lipoamide acyltransferase component of branched-chain alpha-keto acid dehydrogenase complex, mitochondrial L172H, P11182	-0.052 ± 0.091
Lipoamide acyltransferase component of branched-chain alpha-keto acid dehydrogenase complex, mitochondrial L172I, P11182	-0.047 ± 0.066
Lipoamide acyltransferase component of branched-chain alpha-keto acid dehydrogenase complex, mitochondrial L172K, P11182	-0.004 ± 0.048
Lipoamide acyltransferase component of branched-chain alpha-keto acid dehydrogenase complex, mitochondrial L172M, P11182	-0.063 ± 0.048
Lipoamide acyltransferase component of branched-chain alpha-keto acid dehydrogenase complex, mitochondrial L172N, P11182	-0.127 ± 0.07
Lipoamide acyltransferase component of branched-chain alpha-keto acid dehydrogenase complex, mitochondrial L172P, P11182	-0.226 ± 0.057
Lipoamide acyltransferase component of branched-chain alpha-keto acid dehydrogenase complex, mitochondrial L172Q, P11182	-0.428 ± 0.32
Lipoamide acyltransferase component of branched-chain alpha-keto acid dehydrogenase complex, mitochondrial L172R, P11182	-0.347 ± 0.049
Lipoamide acyltransferase component of branched-chain alpha-keto acid dehydrogenase complex, mitochondrial L172S, P11182	-0.251 ± 0.045
Lipoamide acyltransferase component of branched-chain alpha-keto acid dehydrogenase complex, mitochondrial L172T, P11182	-0.085 ± 0.1
Lipoamide acyltransferase component of branched-chain alpha-keto acid dehydrogenase complex, mitochondrial L172V, P11182	-0.107 ± 0.039
Lipoamide acyltransferase component of branched-chain alpha-keto acid dehydrogenase complex, mitochondrial L172W, P11182	-0.206 ± 0.061
Lipoamide acyltransferase component of branched-chain alpha-keto acid dehydrogenase complex, mitochondrial L172Y, P11182	-0.139 ± 0.07
Lipoamide acyltransferase component of branched-chain alpha-keto acid dehydrogenase complex, mitochondrial L180C, P11182	-0.421 ± 0.055

Source: the Human Domainome abundance scans (Beltran et al. 2025)
